The source of these data is patent publication US20190225698A1 (JIANGSU HENGRUI MEDICINE, published 2019).

The target of the experiment is T1, human CD27-HisFc fusion protein (human, UniProt P26842 20-192).
T1 construct: also called CD27-HisFc (Sino Biological #10039-H03H); not shown: His tag and Fc
T1 sequence (looked up): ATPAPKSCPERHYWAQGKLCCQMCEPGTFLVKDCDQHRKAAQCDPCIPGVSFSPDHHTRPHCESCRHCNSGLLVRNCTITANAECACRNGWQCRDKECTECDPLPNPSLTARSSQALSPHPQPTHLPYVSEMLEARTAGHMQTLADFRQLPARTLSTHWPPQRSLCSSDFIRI
In words: BLI (Octet RED96), CD27-HisFc captured on AHC sensor, Fab in solution. The protocol:
A histidine tag was added to each unique sequence of the antibody Fab fragment at the C-terminal, and the antibody Fab fragment was overexpressed in an E. coli expression system, and then purified by using Ni-NTA affinity resin. […] The collected data was processed by Data Acquisition 7.1 software and fitted to a 1:1 combined Langmuir model curve. The mAb076 and mAb077 antibodies were the two antibodies with optimal binding and were selected for further analysis and development experiments.

B1: mAb076 antibody Fab fragment with C-terminal histidine tag (Fab, V domains shown)
VH: EVQLVESGGGLVQPGGSLRLSCAASGFTFSDYGIHWVRQAPGKGLEWIGWINPNRGSTNYAQKFQGRVTISRDNSKNTLYLQLNSLRAEDTAVYYCARDYGYTWYFDVWGQGTLVTVSS
VL: DIQLTQSPSSLSASVGDRVTITCRASQDISSVLAWYQQKPGKAPKLLIYAASSLQSGVPSRFSGSGSGTDFTLTISSLQPEDFATYYCQQRDAWPLTFGQGTKVEIK
In the case of B1, the binding result is listed as “binds”.

B2: mAb077 antibody Fab fragment with C-terminal histidine tag (Fab, V domains shown)
VH: EVQLVESGGGLVQPGGSLRLSCAASGFTFSGYGIHWVRQAPGKGLEWIGWINPNRGSTKYAQKFQGRVTISRDNSKNTLYLQLNSLRAEDTAVYYCARDPGYTWYFDVWGQGTLVTVSS
VL: DIQLTQSPSSLSASVGDRVTITCRASQDISSDLAWYQQKPGKAPKLLIYAASTLQSGVPSRFSGSGSGTDFTLTISSLQPEDFATYYCQQRDAWPPTFGQGTKVEIK
For the molecule B2, the binding result is listed as “binds”.
